This is an account of results in article PMC9899272, “An engineered variant of MECR reductase reveals indispensability of long-chain acyl-ACPs for mitochondrial respiration” (Nature Communications, 2023).

Substrate in data set [1]: CCCCCCC/C=C/C(=O)SCCNC(=O)CCNC(=O)[C@H](O)C(C)(C)COP(=O)(O)OP(=O)(O)OC[C@H]1O[C@@H](n2cnc3c(N)ncnc32)[C@H](O)[C@@H]1OP(=O)(O)O
In words: spectrophotometric 2E-enoyl-CoA reductase assay, Michaelis-Menten fit. The settings on record: 125 µM NADPH, 100 µg bovine serum albumin, 50 mM potassium phosphate pH 7.5, 25 °C. Format: biochemical, Homo sapiens. The text has this: (§1) spectrophotometric 2E-enoyl-CoA reductase assay, Michaelis-Menten fit on MECR

Substrate in data set [2]: CCC/C=C/C(=O)SCCNC(=O)CCNC(=O)[C@H](O)C(C)(C)COP(=O)(O)OP(=O)(O)OC[C@H]1O[C@@H](n2cnc3c(N)ncnc32)[C@H](O)[C@@H]1OP(=O)(O)O
The description is as above. Format: biochemical, Homo sapiens. The conditions noted are these: 125 µM NADPH, 100 µg bovine serum albumin, 50 mM potassium phosphate pH 7.5, 25 °C.
Description: as §1

Substrate in data set [3]: CCCCC/C=C/C(=O)SCCNC(=O)CCNC(=O)[C@H](O)C(C)(C)COP(=O)(O)OP(=O)(O)OC[C@H]1O[C@@H](n2cnc3c(N)ncnc32)[C@H](O)[C@@H]1OP(=O)(O)O
Described as above. The settings on record: 125 µM NADPH, 100 µg bovine serum albumin, 50 mM potassium phosphate pH 7.5, 25 °C. Format: biochemical, Homo sapiens.
Description: as §1

Data set [4] concerns the molecule itself. Kind of data set: crystal structure; sitting drop vapor diffusion at +4 °C, 16.82% PEG 6000, 1 M NaCl, 100 mM acetic acid, pH 4.5; trigonal space group P3(1)21; one chain in the asymmetric unit, dimer via a crystallographic 2-fold axis.

B1: wild-type human MECR (2E-enoyl-ACP reductase) with C-terminal His-tag (enzyme, UniProt Q9BV79 31-373, looked up)
chain: ASSYSASAEPARVRALVYGHHGDPAKVVELKNLELAAVRGSDVRVKMLAAPINPSDINMIQGNYGFLPELPAVGGNEGVAQVVAVGSNVTGLKPGDWVIPANAGLGTWRTEAVFSEEALIQVPSDIPLQSAATLGVNPCTAYRMLMDFEQLQPGDSVIQNASNSGVGQAVIQIAAALGLRTINVVRDRPDIQKLSDRLKSLGAEHVITEEELRRPEMKNFFKDMPQPRLALNCVGGKSSTELLRQLARGGTMVTYGGMAKQPVVASVSLLIFKDLKLRGFWLSQWKKDHSPDQFKELILTLCDLIRRGQLTAPACSQVPLQDYQSALEASMKPFISSKQILTM
notes: the first N-terminal residues of the crystallised protein are A31-A41 (not defined in the maps); the C-terminus is seen till L374, followed by the six-residue His-tag; L374 lies beyond M373, the last visible residue of the earlier structures, and is probably a vector residue before the His-tag; also called wild-type MECR; MECR WT; source: E. coli BL 21 Star (DE3) pLysS, purified (Ni-NTA, …)
As usually defined, the Km is the substrate concentration at which the rate is half of its maximum. Broadly, the kcat is the maximal rate divided by the concentration of active sites. As a reminder, the kcat/Km is the turnover number divided by the Michaelis constant. Broadly, the stoichiometry N is a count of units in the complex or per binding partner. With B1, the results for the Km in data set [1], in data set [2] and in data set [3] were 15.9 ± 2.2 µM, 90.6 ± 26.5 µM and 23.2 ± 5.4 µM, respectively. The kcat was determined as 0.62 ± 0.02 s⁻¹ in data set [1], 0.99 ± 0.22 s⁻¹ in data set [2] and 1.8 ± 0.13 s⁻¹ in data set [3]. In addition, the figures for the kcat/Km in data set [1], in data set [2] and in data set [3] were 40000 M⁻¹ s⁻¹, 10000 M⁻¹ s⁻¹ and 80000 M⁻¹ s⁻¹, respectively. Moreover, the “stoichiometry N” value in data set [4] stood at 2.

B2: MECR G165Q variant with C-terminal His-tag (enzyme, human, UniProt Q9BV79 31-373, looked up)
chain: ASSYSASAEPARVRALVYGHHGDPAKVVELKNLELAAVRGSDVRVKMLAAPINPSDINMIQGNYGFLPELPAVGGNEGVAQVVAVGSNVTGLKPGDWVIPANAGLGTWRTEAVFSEEALIQVPSDIPLQSAATLQVNPCTAYRMLMDFEQLQPGDSVIQNASNSGVGQAVIQIAAALGLRTINVVRDRPDIQKLSDRLKSLGAEHVITEEELRRPEMKNFFKDMPQPRLALNCVGGKSSTELLRQLARGGTMVTYGGMAKQPVVASVSLLIFKDLKLRGFWLSQWKKDHSPDQFKELILTLCDLIRRGQLTAPACSQVPLQDYQSALEASMKPFISSKQILTM
notes: the first N-terminal residues of the crystallised protein are A31-A41 (not defined in the maps); the C-terminus is seen till L374, followed by the six-residue His-tag; L374 is probably a vector residue before the His-tag; also called G165Q MECR; G165Q mutant; source: E. coli BL 21 Star (DE3) pLysS, purified (Ni-NTA, size-exclusion chromatography); not shown: His6, C-terminal, kept
Turning to B2, the Km was 8.15 ± 1.54 µM in data set [1], 111.2 ± 17.3 µM in data set [2] and 114.1 ± 16.2 µM in data set [3]. Besides, the kcat in data set [1] came out at 0.3 ± 0.02 s⁻¹; in data set [2] it was 3.49 ± 0.33 s⁻¹; in data set [3], 12.4 ± 1.9 s⁻¹. Moreover, the kcat/Km in data set [1] stood at 40000 M⁻¹ s⁻¹; in data set [2], 30000 M⁻¹ s⁻¹; in data set [3], 110000 M⁻¹ s⁻¹. Moreover, the “stoichiometry N” value in data set [4] came to 2.
